What all share (assay): X-ray crystallography
Data set [1] deals with T1, PFV integrase (IN) (prototype foamy virus, UniProt P14350 752-1143).
Data set [2] has as its target T1, PFV integrase (IN). The source holds these as a separate data set.
The target of data set [3] is T1, PFV integrase (IN). This is another data set of the same source.

Like-named read-outs stand apart in the source and are kept apart here.

B1: unprocessed U5 viral DNA end, 19 bp (N:r) (dsDNA)
DNA 1: TGCGAAATTCCATGACAAT
DNA 2: ATTGTCATGGAATTTCGCA
Turning to B1, the binding result in data set [1] is reported as “binds”.

B2: 3'-processed viral DNA end (R:N, 17/19-mer), formed in crystallo (dsDNA)
DNA 1: TGCGAAATTCCATGACA
DNA 2: ATTGTCATGGAATTTCGCA
For the molecule B2, the binding result in data set [2] was “binds”.

B3: unprocessed U5 viral DNA end, 5'-phosphate on nonreactive strand (dsDNA)
DNA 1: TGCGAAATTCCATGACAAT
DNA 2: ATTGTCATGGAATTTCGCA
modifications: 5'-phosphate on strand 2 (nonreactive)
Consider B3, for which the binding result in data set [3] is reported as “binds”.
